Data as given in paper PMC2950884 (Nature structural & molecular biology, 2010).

Key:
[1] = target: Pcf11 CTD-interacting domain (S. cerevisiae) (UniProt P39081); assay: NMR titration
[2] = target: Rtt103 CTD-interacting domain (residues 1-131) (S. cerevisiae) (UniProt Q05543); assay: NMR titration
[3] = target: Pcf11-CID (N107R) (S. cerevisiae) (UniProt P39081); assay: NMR titration
[4] = target: four heptad repeat Ser2P CTD peptide; assay: NMR relaxation
[5] = target: Ser2abP-CTD diheptad repeat peptide (phosphorylated at both Ser2 positions); assay: fluorescence polarisation
[6] = target: Ser2abP/Ser5abP-CTD diheptad repeat peptide; assay: fluorescence polarisation
[7] = target: Ser5abP-CTD diheptad repeat peptide; assay: fluorescence polarisation
[8] = target: four heptad repeat Ser2P CTD peptide; assay: fluorescence polarisation
AUC = target: the molecule itself; assay: AUC
PMA1 gene = assay: ChIP of TAP tagged proteins, 3′-end recruitment; assay type: cell-based, yeast
ADH1 gene = assay: ChIP of TAP tagged proteins, 3′-end recruitment; assay type: cell-based, yeast
[9] = untagged wild-type Pcf11 present

Molecule | Kd [1] [µM] | Kd [2] [µM] | Kd1 (first binding event) [8] [µM] | Kd2 (second binding event) [8] [µM] | also measured
Ser2aP-CTD diheptad repeat peptide | 1400 | 420 | – | – | –
Ser5abP-CTD diheptad repeat peptide | 1200 | – | – | – | –
Ser2abP/Ser5abP-CTD diheptad repeat peptide | 630 | 41 | – | – | –
Ser2bP-CTD diheptad repeat peptide | 240 | 76 | – | – | –
Ser2abP-CTD diheptad repeat peptide (phosphorylated at both Ser2 positions) | 160 | 15 | – | – | Kd [3]: 24 µM
Rtt103 CTD-interacting domain (residues 1-131) (domain or fragment) MPFSSEQFTTKLNTLEDSQESISSASKWLLLQYRDAPKVAEMWKEYMLRPSVNTRRKLLGLYLMNHVVQQAKGQKIIQFQDSFGKVAAEVLGRINQEFPRDLKKKLSRVVNILKERNIFSKQVVNDIERSL | – | – | 3 | 20 | stoichiometry N (proteins per peptide) [4]: 2; Kd [5]: 2.1 µM; Kd [6]: 53 µM; Kd [7]: 122 µM
Pcf11 CTD-interacting domain (domain or fragment, S. cerevisiae, UniProt P39081 4-139, looked up) DTEVIVKDFNSILEELTFNSRPIITTLTKLAEENISCAQYFVDAIESRIEKCMPKQKLYAFYALDSICKNVGSPYTIYFSRNLFNLYKRTYLLVDNTTRTKLINMFKLWLNPNDTGLPLFEGSALEKIEQFLIKAS | – | – | 50 | 140 | stoichiometry N (AUC): 2; Kd [5]: 130 µM; Kd [6]: 370 µM
Rtt103-CID (R108N) (domain or fragment) MPFSSEQFTTKLNTLEDSQESISSASKWLLLQYRDAPKVAEMWKEYMLRPSVNTRRKLLGLYLMNHVVQQAKGQKIIQFQDSFGKVAAEVLGRINQEFPRDLKKKLSNVVNILKERNIFSKQVVNDIERSL | – | – | – | – | Reduction of 3′-end recruitment compared with wild type (factor) (PMA1 gene): 8; Reduction of 3′-end recruitment compared with wild type (factor) (ADH1 gene): 5; Kd [5]: 100 µM
Rtt103(E115R)-CID (domain or fragment) MPFSSEQFTTKLNTLEDSQESISSASKWLLLQYRDAPKVAEMWKEYMLRPSVNTRRKLLGLYLMNHVVQQAKGQKIIQFQDSFGKVAAEVLGRINQEFPRDLKKKLSRVVNILKRRNIFSKQVVNDIERSL | – | – | 1.8 | > 1000 | stoichiometry N (protein per peptide) [4]: 1
Pcf11(D117A)-CID (domain or fragment) DTEVIVKDFNSILEELTFNSRPIITTLTKLAEENISCAQYFVDAIESRIEKCMPKQKLYAFYALDSICKNVGSPYTIYFSRNLFNLYKRTYLLVDNTTRTKLINMFKLWLNPNATGLPLFEGSALEKIEQFLIKAS | – | – | 40 | 430 | –
Pcf11(D117K)-CID (domain or fragment) DTEVIVKDFNSILEELTFNSRPIITTLTKLAEENISCAQYFVDAIESRIEKCMPKQKLYAFYALDSICKNVGSPYTIYFSRNLFNLYKRTYLLVDNTTRTKLINMFKLWLNPNKTGLPLFEGSALEKIEQFLIKAS | – | – | 30 | 130 | –
Pcf11-CID (N107R): Pcf11 with arginine in place of Asn107; CID in vitro, TAP tagged protein in ChIP (protein) DTEVIVKDFNSILEELTFNSRPIITTLTKLAEENISCAQYFVDAIESRIEKCMPKQKLYAFYALDSICKNVGSPYTIYFSRNLFNLYKRTYLLVDNTTRTKLIRMFKLWLNPNDTGLPLFEGSALEKIEQFLIKAS | – | – | – | – | Increase of 3′-end recruitment compared with wild type Pcf11-TAP (factor) (PMA1 gene; [9]): > 2; Increase of 3′-end recruitment compared with wild type Pcf11-TAP (factor) (ADH1 gene; [9]): > 2
